Results published in a protein production outcome set (Wang et al. 2014).

Assay: label from the status in PepcDB records

Sequence	protein production
MDRDSSMQAKNLDAQCNPDLKMASANSETLASATHELKIMDVEGGALVDPDHIEEVETSMVIVVDDDDGDVAMVVEEDKHPMRDDPCIEDIMDDEHAPLVAELQSALNNPDDKQASEDPLLEDQEREPDAMSTKTEPSSDAESSHSYHDPMGLLERIEIHDPGDSQDDDDEDDESSNGGGVDGGMRRKMPRAQRWLLWMKRWPWILHEDSDGTLAFCLYCNISINVNNRSRHIQQHNVSLSHQERECNYLAFKKSEEETRGAISDNEIKHEFGTKSYVAAMKQKRISETEAFNNFNWLRWLRWHPWLERSMPTGTIGTCRICSVRMNVEFVYLRKRHETTKGHMEALRNLDSDKRSRKRKRSKSNSVTNSGGDEAEREKESEPEVGPEDAQDTPVVMMNGDVDSGDDPGKWCALIPDTNPQQCRCTLCNCTMAITSFLRHCKTRAHCHMLSTPAEKGSSDIRGIWAVFADMHPWLIADPEDPSIGYCSVCRKRFMYGNSEIKRKNHEKSEKHTLALASAKAGIEVGSADGRGGDNMDEEEAAASDQAQSSQTDDSEDNDDDNWSEIQKLGKGFAHKSSSEPRKATVRAGVRFYPWLCYSKDRKTQICKFCRVRFHNEAAKARHELSARHVKLVKQFKMRQAKLHQGTNTQTKHNAQDDEESQEQDEEYGEEEEDAEEDSQSNFDLGTVQARKTARADNKLFVKPIPATMKGKVMVWKGRFPWLSYKKNEQRGNYAWCKLCEVSLYLPSSKWASKHQRTSRHIRLRIDRKRNGGNPLKTSNKNSGEISTVVATASALASAEARQKAAMAELQAKYDWLDPDANDENHCHCRVCDSRLPIKVFYLRQHDASRKHVENKERQRANAAAAANAPSVSPTSTVDAERQESGMDKESENDMSVRSDGSTAEPLAKRSRRSMEVRRIIRALRDSMGKRQEERSQMDMARDMICSSFDIVTRLRTLERESVAHNESMAQAPPSVTVSPIKPPEPRHVMDLFFDSISPTMKSLPPDLAAEGKSKIMQLVCSLELRAMQRNATTPTPATVSASSKWPSSTTVTPVKTPPAPISAPLASVDADLHSSVVTTPHEYNNGQNNNNDKETVPKEPVTGASSAQVTINGSAKDLPENIRRILTSNQTQVTNRLETDSVRCVPLDKLTTQSRTNVNGRLSQGGTSEAPSTPQADLSNGNTLAMIRQIRVNNNNSSKITVTNTPQMQQPQQAQASITSSTPIMRGGPSSNGCQITTFRTMVNHNRRP	failed
MDREQVVALQHQRFAAKKYDPNRRISQKDWEALVEVGRLAPSSIGLEPWKMLLLKNERMKEDLKPMAWGALFGLEGASHFVIYLARKGVTYDSDYVKKVMHEVKKRDYDTNSRFAQIIKNFQENDMKLNSERSLFDWASKQTYIQMANMMMAAAMLGIDSCPIEGYDQEKVEAYLEEKGYLNTAEFGVSVMACFGYRNQEITPKTRWKTEVIYEVIE	not failed
MDRHEYEHRIINRIVENHGRDTRQLLSILREVQHEFRQVSPEAQQKVAESLGVCITQVRAVVDFYSFLSTVPLGKFDIRISDSITDHMLGSREVAAGLCRKLGIQPGEPRQDGRVGLSFTSCTGLCDQGPAGLINGYAIPRLTEDRTDQIARLINDDIPLGEWPEEFFAIKENIRLADRLLGNPVRPGEALERTLALDRETMFGEIETSQLRGRGGAGFNTAWKWRFCYEGPETAAVCPPGQPAAGIERYVVCNADEGEPGTFKDRVLLQSCADQVFEGMTVCAYLVGAKQGFLYLRGEYLYLHDQLEAVLAARRRHGLLGKSILGREGFDFDIEIRLGAGAYICGEESALIESLEGNRGVPRNRPPYPVTHGYLGKPTVVNNVETFFAAAAIAVHGGEWFAEVGTEKSKGTKLLSICGDCARPGIYEYPFGVTIRQVLEDCGAADVLGVQIGGPSGTFLSDKECDRKLAYEDLATGGSFIVFDRTRDVIGIARNFTHFFAHESCGFCTPCRVGTALLKNLLDKIAEGHGATGDLAELSRLGRFVRSASHCGLGQTAANPILSTLERYPEIYQARLKTIDFEPGFDLDGALATARRLSGRDDANAHLSQS	failed
MDRSLQSTHAKLVARDIQRLTQSPTESNSFSLLGGACVSRVEIVGTIVSRDLTPKFLKFGVDDGTGCVTCVMWLNQLTSSYFSRWDPATILLLASAARKQAAQIRIGAVARVRGRVGSYRGVMQITANVAVAERDPNAEILHWLECLKLGQSCYRVRIQS	failed
MDRTEQKSIIEGLLFVSGDEGIYPEQIAKVLEIEGNEVIDILEEMQKECEGAHRGLQIVQYAKVYRFATKKEHASYYQKLIEIPTAASLSQAALETLAIVAYRQPITRTEMEEIRGVKTDKALQTLVSHLLIKEMGRAEGPGRPILYGTTKEFLDTFGLKTLDDLPPLSEENEQMNEADLFFGSLQEISK	failed
MDRTQFTKIFTRYYMRSTSLGIIFTLFACAIRGVNLVVYLPYVLSASTCFTYLWASRTFTLEQKHQSVVIALILGYTLTFYLYFFLGGHFLFSSLVTINLLLTMVEFGVFWSFFTYALSMTFCFYIDLITAGNDPFKLHALKEFFIQSTFLFLFNLFIYKGLRSIECYWHGIWQKQYEQVEKLERLLEIDELTGCYSRFKGNQLIEQQIQRAQPFTLLYIDLDGFKAVNDEFGHDAGDKVLQITAQRILHLLDDGQFATRIGGDEFILCLPNIEDTKELEQFQSLLHHACSAPIFIHFQNVHIGLSVGMARFPHEGSCSDSLIQHADQMMYLTKRSRT	failed
MDSEGFSPSIYTDKTGHPTIGYGYNLSVYSYEGKRITKTYGLLTDILSYGWYKNLDAMRRMVILDLSYNLGLNGLLKFKQFIKAIEDKNYALAVERLQKSPYFNQVKKERQGIWKF	failed
MDSENAVKTTYGEFNGKKPFAVMLLGTDTGALDRTEKRGNTDTIIVVVVNPKKKNYTMISIPRDTMADMVGDDSNDVQKINAAYSIGGAKMAMKTVSNLLNIPVKYYALVNMGGLMKLVDYVGGIYVTPPLTFTYSGFPFKKRVRQHLNGQAALAYSRMRYDDPQGDYGRQKRQREVITKLVQKLATADSLTNFSKIANNLSSNVKTNLSFQALKSILANYSDCTSSSDSDYLHGYSTYVNDAAYQIAPTSELQRISNKIRKLLGLKTATVSNRETELNTLNETAGFKFGSGETQNYTLEHHHHHH	failed
MDSGFTLRAPRNDKRRNPMPAILGTGEHRYRVVENFAKLPDGWQLTDVAAVAVDSLDRVYVFNRGAHPMVVLDREGNFLRSWGEGLFSRAHGLHIDADDNLYCTDDGDHTVRKCTSDGKVLLTIGIPAKPAPFMSGEPFHRCTHTALSPKGEIYVSDGYGNARVHKFTPDGKLIKSWGEPGTDPGQFNIVHNIATDSDGWVYVADRENHRVQVFNGEGKYETQWNNLHRPCALCCCGGRSPTFVIGELGPGLDINRNVPNLGPRLSIVDAKGNRIARLGGEEGPGVASGKFLAPHGIALDSKGDIYVGEVGVTNWATSFPDQEMPAVVRATRCLQKLERVRE	failed
MDSGTINIKKWVVIYPVYINSKKTVAEGRRISVSKSCENPNCIEISDCCKHLKLPSAVEIDKAYPRDFMQVGRVRVQLKREDGTLLNPAITSRKHLMQKIAELVPRHPERVKKQEAQKAKKQEPQATTSTSGTSSKSGKGGKKKR	failed
MDSIKGVFTGNKDTPLEESNLPVEAFTLLRFADELKNARRLGKFKQYIVGRSSEATFADAFEKQEAVIRYLGALDATGENLQASQKQDAAKHCKCTITDVENTLSKFTWARQAHKKMTELKEGGKPLPKNMGEVFFSLCILICFFSSISSYV	failed
MDSNWINCPSVFSSSSSSSRRCQSRSDLYLGGGYEDLEGEDDLKAEFICPFCAEDFDIVGLCCHIDEEHPVEAKNGVCPVCTKRNLCLFLDERFYVQRRRRLRRGGYSSTYLALKKELREANLQSLLGGSSSFTSSTNIDSDPLLSSFMFNSPSVNQSANKSATPVTVGNAATKVSIKESLKRDIQEAPLSGEDQEKAKKSEFVRGLLLSTMLEDDF	failed
MDSPKRGGPRVRPSFVFCTRTCFPTPPDRMSDSESADPHSPSPTGDGQDTEPRDADGHEVARRGDTEAMEGLLEQGMDPNHTNEHGHSLLMIAAYSDQPEMADLLIEHGADPNRSDPSGSTPLMGCCFKGLAEAAEVLIEAGADVNATGARGATALMYAATYGESALVDLLLEHGADPTTTNEQGQTAAEQAAAEGHEEIAERLRQATAGA	failed
